Assay results as given in the supplement of paper PMC7125110.
± gives the standard error. For some of these results: Fewer inactive variants are shown than the library holds.

B1: glmS ribozyme (parent)
chain: AUAAAAGCGCCAGAACUACAGAAAUGUAGUUGACGAGGAGGAGGUUUAUCGAAUUUUCGGCGGAUGCCUCCAAA

Assays:
Conditions in all cases: with glucosamine-6-phosphate
glucosamine-6-phosphate [1] = variants of: B1; assay: kcat; higher = faster cleavage; RNA array
Procedure, shortened: (§1)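 Barcoded ribozyme variants, transcribed in situ by E. coli RNA polymerase on sequenced MiSeq chips, were followed via a hybridised Cy3 probe at 37 °C. Glucosamine-6-phosphate ranged from 40 μM to 10 mM in HEPES/KCl/Mg(OAc)2 buffer. kobs came from decay fits to per-tile medians, and kcat and KM from weighted Michaelis–Menten fits.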

glucosamine-6-phosphate [2] = variants of: B1; assay: KM; higher = weaker cofactor use; RNA array
Procedure, shortened: as §1

glucosamine-6-phosphate [3] = variants of: B1; assay: self-cleavage kobs at 640 uM GlcN6P; higher = faster cleavage; RNA array
Procedure, shortened: as §1

glucosamine-6-phosphate [4] = variants of: B1; assay: self-cleavage kobs at 2500 uM GlcN6P; higher = faster cleavage; RNA array
Procedure, shortened: as §1

glucosamine-6-phosphate [5] = variants of: B1; assay: self-cleavage kobs at 10000 uM GlcN6P; higher = faster cleavage; RNA array
Procedure, shortened: as §1

glucosamine-6-phosphate [6] = variants of: B1; assay: self-cleavage kobs at 40 uM GlcN6P; higher = faster cleavage; RNA array
Procedure, shortened: as §1

glucosamine-6-phosphate [7] = variants of: B1; assay: self-cleavage kobs at 160 uM GlcN6P; higher = faster cleavage; RNA array
Procedure, shortened: as §1

Variant	kcat (glucosamine-6-phosphate [1]) [s⁻¹]	KM (glucosamine-6-phosphate [2]) [µM]	self-cleavage kobs at 640 uM GlcN6P (glucosamine-6-phosphate [3]) [s⁻¹]	self-cleavage kobs at 2500 uM GlcN6P (glucosamine-6-phosphate [4]) [s⁻¹]	self-cleavage kobs at 10000 uM GlcN6P (glucosamine-6-phosphate [5]) [s⁻¹]	self-cleavage kobs at 40 uM GlcN6P (glucosamine-6-phosphate [6]) [s⁻¹]	self-cleavage kobs at 160 uM GlcN6P (glucosamine-6-phosphate [7]) [s⁻¹]
U47C U49G	0.000198 ± 1.4e-05	1240 ± 220	6.46e-05 ± 1.7e-05	0.000146 ± 3.2e-05	0.000169 ± 3.6e-05		
U47G A53C	0.00406 ± 0.001	2510 ± 860	0.000873 ± 0.00013	0.00196 ± 0.00025	0.00439 ± 0.0019	0.000103 ± 3.4e-05	0.000223 ± 3.9e-05
U46G A53U	0.006 ± 0.0013	2190 ± 770	0.00141 ± 0.00032	0.00253 ± 0.00059	0.00566 ± 0.00098	0.000116 ± 2.4e-05	
A48U U54G	0.000434 ± 0.00011		8.39e-05 ± 4.1e-05	0.000261 ± 0.0001	0.000397 ± 9.1e-05		6.29e-05 ± 1.9e-05
A48U U54C	0.000526 ± 0.00015		5.32e-05 ± 1.7e-05	0.000255 ± 5.1e-05	0.000349 ± 6.3e-05		
A48C C68U	8.75e-05 ± 8.5e-06	1310 ± 540		6.35e-05 ± 1.3e-05	7.54e-05 ± 1.1e-05	< 1e-05	
A48G U55A	0.000106 ± 2.6e-06	1160 ± 180		7.8e-05 ± 3.7e-05	9.5e-05 ± 8.9e-06		
A48G U55G	9.18e-05 ± 6.4e-06	759 ± 210	4.19e-05 ± 7.6e-06	0.000108 ± 3.8e-05	8.43e-05 ± 7.8e-06	< 1e-05	
U46C U57G	1.4e-05 ± 2.4e-06						
A48G U54G	0.000141 ± 9.6e-06	761 ± 180	6.14e-05 ± 1.1e-05	0.000134 ± 2.5e-05	0.000127 ± 1.2e-05		
A48U U55A U56C	4.34e-05 ± 3.5e-06			3.8e-05 ± 1.3e-05	4.04e-05 ± 1e-05		
A48C A53C	9.8e-05 ± 1.5e-05	4010 ± 1400		3.99e-05 ± 1.2e-05	6.89e-05 ± 1.7e-05		
A48C A53U	0.000244 ± 1.5e-05	2410 ± 320	4.84e-05 ± 1.1e-05	0.000131 ± 2e-05	0.000191 ± 3e-05		
C50G U55G	3.86e-05 ± 1.8e-05			4.97e-05 ± 1.6e-05			7.28e-05 ± 1.9e-05
C50U G63A	< 1e-05					< 1e-05	< 1e-05
U49G U55G	0.000836 ± 7.3e-05	1400 ± 250	0.000247 ± 5e-05	0.000582 ± 6.3e-05	0.000687 ± 9.4e-05		8.7e-05 ± 1.8e-05

Variant	kcat (glucosamine-6-phosphate [1]) [s⁻¹]	KM (glucosamine-6-phosphate [2]) [µM]	self-cleavage kobs at 640 uM GlcN6P (glucosamine-6-phosphate [3]) [s⁻¹]	self-cleavage kobs at 2500 uM GlcN6P (glucosamine-6-phosphate [4]) [s⁻¹]	self-cleavage kobs at 10000 uM GlcN6P (glucosamine-6-phosphate [5]) [s⁻¹]	self-cleavage kobs at 40 uM GlcN6P (glucosamine-6-phosphate [6]) [s⁻¹]	self-cleavage kobs at 160 uM GlcN6P (glucosamine-6-phosphate [7]) [s⁻¹]
C50G	0.000456 ± 6.7e-05	90.7 ± 38	0.000443 ± 4.5e-05	0.000399 ± 4e-05	0.000408 ± 5.8e-05	0.000121 ± 1.5e-05	0.000444 ± 4.8e-05
C50U	0.000131 ± 9.2e-06	3300 ± 600	2.57e-05 ± 1.5e-06	5.29e-05 ± 1.6e-06	9.95e-05 ± 1.6e-06		
C50A	2.67e-05 ± 8.3e-07	579 ± 130	1.25e-05 ± 3.1e-06	2.31e-05 ± 2.1e-06	2.49e-05 ± 1.3e-06		
C50U C58A	< 1e-05			< 1e-05	< 1e-05		
A48C U54G	0.000498 ± 0.00012	2740 ± 1200	0.000114 ± 1.4e-05	0.000222 ± 2.4e-05	0.000402 ± 5e-05		
U46G C71A	0.00159 ± 0.00031	935 ± 350	0.000943 ± 0.00016	0.000985 ± 0.00028	0.00143 ± 0.00019	5.65e-05 ± 1.3e-05	
U46G C71U	0.00721 ± 0.0015	1750 ± 550	0.00219 ± 0.00026	0.00497 ± 0.00059	0.00576 ± 0.00058	0.00018 ± 1.7e-05	0.000349 ± 8.8e-05
U46G C71G	0.000535 ± 0.00017		0.000392 ± 7.6e-05	0.000849 ± 0.00013	0.000435 ± 5.5e-05	4.15e-05 ± 1.4e-05	5.99e-05 ± 1.8e-05
A48U G66U	2.75e-05 ± 2.7e-06				2.42e-05 ± 8e-06		
U49A G59U	1.28e-05 ± 4.5e-06						
U46G A48G	7.99e-05 ± 1e-06	1250 ± 69		5.4e-05 ± 1.2e-05	7.08e-05 ± 1e-05	< 1e-05	
U46G A48U	0.00014 ± 2.4e-05		3.53e-05 ± 1.4e-05	0.000128 ± 2.5e-05	0.000117 ± 1.6e-05		
A48G C68G	5.98e-05 ± 7.3e-06		7.32e-05 ± 1.6e-05	5.41e-05 ± 1.2e-05	5.84e-05 ± 8.1e-06	4.65e-05 ± 1.2e-05	
C50G C70G	0.000103 ± 1.8e-05		0.000112 ± 1.2e-05	9.3e-05 ± 1e-05	8.05e-05 ± 8.7e-06	7.4e-05 ± 7.4e-06	0.000142 ± 9.9e-06
U49A C67A	1.28e-05 ± 1.6e-06						
C50G C71U	0.000123 ± 2.1e-05		0.000194 ± 2.7e-05	0.000103 ± 1.3e-05		6.9e-05 ± 9.9e-06	0.000107 ± 1e-05
